From US20150057236A1 (CORNELL UNIVERSITY, published 2015)
Blank lines part the entries; values can stand above or below the binder they belong to. *1 amine or outer side, *2 acyl side, *3 side chain or, on linkers, in order; H or OH if unused. Where no end group is shown, it is not given here. The star is where a group is joined. thiosuccinyl = thiosuccinyl group on a lysine side chain (thiosuccinyl lysine); AMC = Cc1cc(=O)oc2cc(N*)ccc12; Suc = O=C(CCC(=O)[*:2])[*:1]

How the values were obtained:
Assay in all cases: cell-based or functional assay
human Sirt5 [1] = biological target: T1, human Sirt5 (human, UniProt Q9NXA8 1-310, limits assumed)
T1 sequence (Q9NXA8 whole entry): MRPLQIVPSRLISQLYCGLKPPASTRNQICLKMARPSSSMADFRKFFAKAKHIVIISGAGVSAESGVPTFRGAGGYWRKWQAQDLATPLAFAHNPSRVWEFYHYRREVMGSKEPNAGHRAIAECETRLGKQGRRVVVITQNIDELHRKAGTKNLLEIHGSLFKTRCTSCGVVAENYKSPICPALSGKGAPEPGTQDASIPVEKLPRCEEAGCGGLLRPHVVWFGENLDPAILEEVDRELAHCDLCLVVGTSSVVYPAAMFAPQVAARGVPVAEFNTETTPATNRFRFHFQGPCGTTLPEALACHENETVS

human Sirt5 [2] = biological target: T1, human Sirt5; remark: listed apart in the source
human Sirt2 = biological target: T2, human Sirt2 (human, UniProt Q8IXJ6 1-389, limits assumed)
T2 sequence (looked up): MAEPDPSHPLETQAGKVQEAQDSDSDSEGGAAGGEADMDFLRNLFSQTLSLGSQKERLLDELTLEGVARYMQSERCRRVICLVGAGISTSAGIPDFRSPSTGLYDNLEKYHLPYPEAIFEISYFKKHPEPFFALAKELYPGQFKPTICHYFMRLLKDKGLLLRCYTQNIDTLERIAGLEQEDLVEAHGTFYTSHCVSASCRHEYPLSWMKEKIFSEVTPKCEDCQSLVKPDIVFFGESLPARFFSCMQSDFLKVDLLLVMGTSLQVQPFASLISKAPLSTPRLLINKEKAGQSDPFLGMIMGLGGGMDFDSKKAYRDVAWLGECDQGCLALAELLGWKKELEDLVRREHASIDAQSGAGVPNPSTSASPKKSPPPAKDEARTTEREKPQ

human Sirt1 = biological target: T3, human Sirt1 (human, UniProt Q96EB6 1-747, limits assumed)
T3 sequence (looked up): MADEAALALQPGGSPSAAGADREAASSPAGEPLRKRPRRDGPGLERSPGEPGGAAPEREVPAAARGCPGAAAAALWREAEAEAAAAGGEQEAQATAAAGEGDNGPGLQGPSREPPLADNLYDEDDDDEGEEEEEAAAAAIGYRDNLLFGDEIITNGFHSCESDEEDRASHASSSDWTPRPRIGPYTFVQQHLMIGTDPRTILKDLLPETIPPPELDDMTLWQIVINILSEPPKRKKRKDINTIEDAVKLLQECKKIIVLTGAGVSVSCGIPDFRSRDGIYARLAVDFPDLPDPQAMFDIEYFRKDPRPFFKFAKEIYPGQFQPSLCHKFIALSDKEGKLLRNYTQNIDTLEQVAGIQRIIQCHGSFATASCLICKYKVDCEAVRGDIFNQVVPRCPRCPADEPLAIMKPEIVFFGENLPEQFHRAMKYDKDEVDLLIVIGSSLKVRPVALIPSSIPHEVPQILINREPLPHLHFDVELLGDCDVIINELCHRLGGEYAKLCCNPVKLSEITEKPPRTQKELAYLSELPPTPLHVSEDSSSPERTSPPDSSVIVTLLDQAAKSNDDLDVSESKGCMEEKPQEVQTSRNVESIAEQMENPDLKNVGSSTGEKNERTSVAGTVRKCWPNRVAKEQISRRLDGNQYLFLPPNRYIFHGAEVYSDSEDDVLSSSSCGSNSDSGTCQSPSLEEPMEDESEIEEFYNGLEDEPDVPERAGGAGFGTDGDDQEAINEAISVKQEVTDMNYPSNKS

human Sirt3 = biological target: T4, human Sirt3 (human, UniProt Q9NTG7 102-399, limits assumed)
T4 sequence (looked up): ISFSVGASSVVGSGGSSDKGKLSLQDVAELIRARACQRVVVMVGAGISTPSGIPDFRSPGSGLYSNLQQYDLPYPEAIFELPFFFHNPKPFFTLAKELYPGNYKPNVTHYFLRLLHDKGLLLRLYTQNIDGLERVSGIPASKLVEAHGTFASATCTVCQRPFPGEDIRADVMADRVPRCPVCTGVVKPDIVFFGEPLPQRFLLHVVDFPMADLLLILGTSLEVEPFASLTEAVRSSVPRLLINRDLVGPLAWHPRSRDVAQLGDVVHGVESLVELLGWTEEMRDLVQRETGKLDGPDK

- fluorescence increase against control without Sirt5 (fluorogenic assay) (human Sirt5 [1]): ~3 fold
Binder: KQTARK(Suc)-{AMC} [KQTAR(SuK)-AMC peptide]

- IC50 (µM), inhibition of sirtuin deacylase activity (human Sirt5 [2]): 5 µM
- IC50 (µM), inhibition of sirtuin deacylase activity (human Sirt2): > 100 µM
- IC50 (µM), inhibition of sirtuin deacylase activity (human Sirt1): > 100 µM
- IC50 (µM), inhibition of sirtuin deacylase activity (human Sirt3): > 100 µM
Binder: KQTARK(thiosuccinyl)STGGKA [H3K9 thiosuccinyl (H3K9 TSu) peptide, KQTAR(TSuK)STGGKA]

- fluorescence increase against control without Sirt5, 1 µM Sirt5 (human Sirt5 [1]): 11 fold
- fluorescence increase against control without Sirt5, 2 µM Sirt5 (human Sirt5 [1]): 20 fold
- fluorescence increase against control without Sirt5, 5 µM Sirt5 (human Sirt5 [1]): 26 fold
Binder: ISGASEK(Suc)-{AMC} [ISGASE(SuK)-AMC peptide]
